According to the Human Domainome abundance scans (Beltran et al. 2025):
± gives the uncertainty stated by the source.

B1: Proto-oncogene vav, residues 782 to 842; numbered along this chain, P15498 (parent)
chain: KYFGTAKARYDFCARDRSELSLKEGDIIKILNKKGQQGWWRGEIYGRVGWFPANYVEEDYS

Variants of: B1
Experiment: abundance fitness (aPCA) (normalised: wild type 0, dead -1); higher = more abundant; growth selection in yeast, the domain comes from the species named
Conditions: Homo sapiens

In order of falling abundance fitness:
1. Q36K  0.132 ± 0.1
2. I44L  0.089 ± 0.075
3. I44N  0.085 ± 0.17
4. N32S  0.082 ± 0.062
5. Q36P  0.074 ± 0.092
6. V48T  0.071 ± 0.069
7. K34N  0.068 ± 0.15
8. K34E  0.068 ± 0.1
9. I44A  0.062 ± 0.069
10. Q36M  0.055 ± 0.085
11. I44V  0.044 ± 0.062
12. I44C  0.042 ± 0.087
13. K34Q  0.031 ± 0.072
14. K34R  0.019 ± 0.043
15. Q36H  0.016 ± 0.15
16. N32Q  0.009 ± 0.12
17. Q36E  -0.005 ± 0.077
18. K34A  -0.013 ± 0.077
19. E43Q  -0.019 ± 0.12
20. N32H  -0.02 ± 0.15
21. I44H  -0.025 ± 0.21
22. I44T  -0.027 ± 0.095
23. K34H  -0.03 ± 0.11
24. Q36L  -0.045 ± 0.064
25. K34S  -0.05 ± 0.085
26. K34G  -0.051 ± 0.07
27. K34D  -0.054 ± 0.17
28. V48S  -0.062 ± 0.059
29. V48E  -0.07 ± 0.05
30. Q36A  -0.07 ± 0.094
31. V48K  -0.071 ± 0.1
32. K34V  -0.072 ± 0.075
33. Q36D  -0.073 ± 0.18
34. N32G  -0.075 ± 0.07
35. Q36T  -0.076 ± 0.088
36. Q36I  -0.084 ± 0.11
37. K33R  -0.089 ± 0.051
38. G35S  -0.104 ± 0.07
39. K34C  -0.117 ± 0.11
40. E43S  -0.126 ± 0.07
41. N32T  -0.131 ± 0.1
42. I44R  -0.145 ± 0.062
43. E43K  -0.155 ± 0.14
44. G35D  -0.155 ± 0.08
45. V48A  -0.156 ± 0.045
46. Q36W  -0.156 ± 0.094
47. K34T  -0.158 ± 0.094
48. G35T  -0.16 ± 0.11
49. K34P  -0.165 ± 0.079
50. G35C  -0.165 ± 0.093
51. G35E  -0.165 ± 0.072
52. Q36F  -0.166 ± 0.15
53. N32Y  -0.168 ± 0.17
54. V48Y  -0.177 ± 0.12
55. G38Q  -0.186 ± 0.14
56. Q36G  -0.192 ± 0.066
57. V48C  -0.194 ± 0.074
58. Q36S  -0.195 ± 0.084
59. E43A  -0.197 ± 0.086
60. G35K  -0.204 ± 0.11
61. K34Y  -0.216 ± 0.16
62. Q36Y  -0.219 ± 0.11
63. K34M  -0.22 ± 0.1
64. N32K  -0.221 ± 0.12
65. N32V  -0.223 ± 0.078
66. G35P  -0.23 ± 0.12
67. I44K  -0.239 ± 0.16
68. N32M  -0.242 ± 0.11
69. Q36N  -0.248 ± 0.22
70. G38K  -0.248 ± 0.18
71. N32R  -0.255 ± 0.063
72. I44F  -0.257 ± 0.24
73. Q36C  -0.258 ± 0.13
74. G38D  -0.265 ± 0.11
75. K34L  -0.268 ± 0.065
76. G35R  -0.287 ± 0.064
77. I44M  -0.292 ± 0.1
78. N32L  -0.292 ± 0.066
79. G35Q  -0.304 ± 0.13
80. G38N  -0.309 ± 0.16
81. E43R  -0.31 ± 0.076
82. V48M  -0.312 ± 0.1
83. G35M  -0.324 ± 0.15
84. G35N  -0.327 ± 0.24
85. G35I  -0.334 ± 0.15
86. E43C  -0.343 ± 0.1
87. G35A  -0.346 ± 0.086
88. V48L  -0.347 ± 0.086
89. E43N  -0.36 ± 0.17
90. N32I  -0.363 ± 0.22
91. K34F  -0.363 ± 0.31
92. E43T  -0.367 ± 0.084
93. K33T  -0.377 ± 0.11
94. P52M  -0.38 ± 0.19
95. E43M  -0.389 ± 0.12
96. V48H  -0.405 ± 0.14
97. K33V  -0.41 ± 0.068
98. K33P  -0.41 ± 0.12
99. E43V  -0.411 ± 0.073
100. G35V  -0.412 ± 0.076
101. G38H  -0.418 ± 0.18
102. K34I  -0.424 ± 0.17
103. I44Y  -0.425 ± 0.17
104. G35H  -0.428 ± 0.13
105. G38E  -0.438 ± 0.17
106. K33I  -0.44 ± 0.15
107. K33E  -0.46 ± 0.15
108. G35L  -0.469 ± 0.075
109. K33Y  -0.475 ± 0.12
110. K33Q  -0.478 ± 0.19
111. I44Q  -0.484 ± 0.16
112. I44D  -0.486 ± 0.16
113. V48W  -0.491 ± 0.076
114. P52K  -0.498 ± 0.21
115. V48D  -0.499 ± 0.11
116. G38V  -0.51 ± 0.1
117. E43L  -0.525 ± 0.086
118. P52Q  -0.528 ± 0.13
119. G38R  -0.539 ± 0.11
120. G38L  -0.55 ± 0.11
121. I44P  -0.556 ± 0.14
122. I44W  -0.556 ± 0.12
123. E43D  -0.559 ± 0.17
124. K33S  -0.576 ± 0.092
125. K33F  -0.593 ± 0.14
126. G35W  -0.6 ± 0.12
127. I44G  -0.619 ± 0.096
128. G38A  -0.619 ± 0.12
129. G35Y  -0.643 ± 0.14
130. K33H  -0.68 ± 0.35
131. K33N  -0.681 ± 0.2
132. E43Y  -0.682 ± 0.16
133. F51V  -0.684 ± 0.1
134. G38T  -0.69 ± 0.14
135. K33W  -0.693 ± 0.11
136. E43G  -0.702 ± 0.12
137. K33A  -0.711 ± 0.12
138. G38C  -0.725 ± 0.23
139. K33C  -0.732 ± 0.17
140. V48P  -0.733 ± 0.12
141. F51P  -0.733 ± 0.19
142. K33G  -0.734 ± 0.11
143. K33D  -0.743 ± 0.2
144. P52N  -0.761 ± 0.29
145. F51R  -0.78 ± 0.12
146. E43W  -0.782 ± 0.16
147. G38M  -0.795 ± 0.23
148. K33M  -0.804 ± 0.23
149. G38F  -0.82 ± 0.29
150. E43F  -0.825 ± 0.47
151. F51G  -0.838 ± 0.1
152. F51C  -0.859 ± 0.18
153. P52R  -0.89 ± 0.099
154. P52L  -0.89 ± 0.12
155. P52A  -0.909 ± 0.22
156. G38I  -0.911 ± 0.25
157. F51E  -0.913 ± 0.25
158. G38W  -0.928 ± 0.31
159. K33L  -0.929 ± 0.16
160. P52D  -0.929 ± 0.36
161. G38P  -0.944 ± 0.25
162. F51D  -0.951 ± 0.3
163. P52F  -0.957 ± 0.43
164. F51A  -0.984 ± 0.27
165. F51W  -0.988 ± 0.2
166. E43H  -0.993 ± 0.42
167. P52C  -1.02 ± 0.34
